The record followed here is article PMC9929924, “Phosphorylation of the receptor protein Pex5p modulates import of proteins into peroxisomes” (Biological Chemistry, 2022).

Data set [1] deals with organellar pellet. Kind of data set: Distribution of Pex5p variants between cytosolic fraction and organellar pellet. It is filed as cell-based, S. cerevisiae. To be noted: postnuclear supernatants of oleate-grown cells; immunoblot; n = 3. The protocol:
Spheroplasting of yeast cells, homogenization, preparation of postnuclear supernatants and generation of cytosolic fractions and organellar pellets by centrifugation (25,000 g for 15 min at 4 °C) were performed as described previously ([Erdmann et al. 1989]).
Immunoblot analyses were performed according to standard procedures. Polyclonal rabbit antibodies used were raised against Pex5p ([Albertini et al. 1997]), Pex14p ([Girzalsky et al. 1999]), Pex13p ([Girzalsky et al. 1999]) and Pex17p ([Huhse et al. 1998]). To detect GFP, monoclonal mouse antibodies (Sigma-Aldrich/Merck or Roche Diagnostics, Germany) were used. Immuno-reactive complexes were visualized either using the IRDye 800CW goat anti-mouse IgG or IRDye 680RD goat anti-rabbit secondary antibody (Li-COR Biosciences, Bad Homburg, Germany) followed by detection with an ‘Infrarot Imaging System’ (Li-COR Biosciences) or using horseradish-peroxidase coupled anti-rabbit or anti-mouse antibodies (Sigma-Aldrich/Merck, Germany) and subsequent detection of chemiluminescence signals with a ChemoCam Camera system (INTAS Science instruments GmbH, Göttingen, Germany). Quantification of immunoblot signals (Supplementary Figure 1E; n = 3) was performed using the software Image Studio Lite (LI-COR Biosciences).
On the technique in general: A western blot detects proteins with antibodies after separation by electrophoresis.

The test system of data set [2] is yeast cells. Kind of data set: Growth of yeast cells expressing Pex5p variants. To be noted: n = 3; for growth in oleate: oleate as sole carbon source (YNO medium). It is filed as cell-based, S. cerevisiae. The text has this: Synthetic complete (SC) medium consisted of 0.17% (w/v) yeast nitrogen base (YNB) without amino acids, 0.5% (w/v) ammonium sulfate, and 0.3% (w/v) glucose (pH 6.0) supplemented with appropriate amino acids ([Schummer et al. 2017]). YNO medium contained 0.1% (v/v) oleic acid, 0.05% (v/v) Tween 40, 0.5% (w/v) ammonium sulfate, and 0.17% (w/v) yeast nitrogen base without amino acids, adjusted to pH 6.0 and supplemented with appropriate amino acids. For growth under peroxisome-proliferating conditions, cells were cultured at 30 °C in SC medium until they reached an optical density at 600 nm (OD600) of 1–1.5 and then shifted to YNO medium to induce peroxisome proliferation. Cells were grown for further 12–16 h or as indicated. For growth of cells in glucose medium, SC medium was supplemented with 2% (w/v) glucose.

The test system of data set [3] is docking complex (Pex14p/Pex17p/Pex13p). Description: Association of Pex5p variants with the peroxisomal docking complex. It is filed as binding, S. cerevisiae. To be noted: TPA-tagged Pex5p variants, digitonin-solubilized membrane fractions; immunoblot. The protocol:
Pex5p was affinity-purified from crude membrane and cytosolic fractions prepared from oleic acid-induced cells expressing TPA-tagged Pex5p as described before with slight modifications ([Agne et al. 2003]; [Schafer et al. 2004]). In brief, cytosolic and membrane fractions were prepared as described above using lysis buffer containing 10% (v/v) glycerol. For the analysis of Pex5p phosphorylation sites, crude membrane fractions were resuspended in glycerol-containing lysis buffer, the protein concentration was adjusted to 5 mg ml^−1, and proteins were solubilized using 1% (v/v) Triton X-100. Unsolubilized material was removed by centrifugation (100,000 g, 1 h, 4 °C). The cleared detergent extracts as well as cytosolic fractions were subjected to affinity purification via IgG Sepharose. Proteins bound to the matrix were eluted by incubation with AcTEV protease (Thermo Fisher Scientific/Invitrogen) followed by addition of Ni-NTA agarose to remove the His-tagged TEV protease. Eluted proteins were collected by centrifugation and precipitated by adding the fivefold volume of ice-cold acetone followed by incubation at −20 °C for at least 1 h. […]
Immunoblot analyses were performed according to standard procedures. […] Quantification of immunoblot signals (Supplementary Figure 1E; n = 3) was performed using the software Image Studio Lite (LI-COR Biosciences).

Data set [4] in a line: Circular dichroism, folding of Pex5p variants. The data set is classed as physicochemical. To be noted: far-UV CD; 25 mM phosphate buffer pH 7.5, 150 mM NaF; 0.2 mg ml^−1. The protocol:
Circular dichroism (CD) experiments were performed on a J-810 spectropolarimeter (Jasco). Proteins were dialyzed against 25 mM phosphate buffer (pH 7.5), 150 mM NaF. Far-UV spectra were recorded between 180 and 280 nm, using a 1-mm cuvette and a concentration of 0.2 mg ml^−1 protein. The machine settings were 1 nm bandwidth, 1 s response, 1 nm data pitch and 100 nm min^−1 scan speed.
For orientation: CD spectra are sensitive to the conformation of chiral molecules.

B1: Pex5p^WT: Pex5p wildtype, PTS1 receptor of S. cerevisiae (protein)
chain: MDVGSCSVGNNPLAQLHKHTQQNKSLQFNQKNNGRLNESPLQGTNKPGISEAFISNVNAISQENMANMQRFINGEPLIDDKRRMEIGPSSGRLPPFSNVHSLQTSANPTQIKGVNDISHWSQEFQGSNSIQNRNADTGNSEKAWQRGSTTASSRFQYPNTMMNNYAYASMNSLSGSRLQSPAFMNQQQSGRSKEGVNEQEQQPWTDQFEKLEKEVSENLDINDEIEKEENVSEVEQNKPETVEKEEGVYGDQYQSDFQEVWDSIHKDAEEVLPSELVNDDLNLGEDYLKYLGGRVNGNIEYAFQSNNEYFNNPNAYKIGCLLMENGAKLSEAALAFEAAVKEKPDHVDAWLRLGLVQTQNEKELNGISALEECLKLDPKNLEAMKTLAISYINEGYDMSAFTMLDKWAETKYPEIWSRIKQQDDKFQKEKGFTHIDMNAHITKQFLQLANNLSTIDPEIQLCLGLLFYTKDDFDKTIDCFESALRVNPNDELMWNRLGASLANSNRSEEAIQAYHRALQLKPSFVRARYNLAVSSMNIGCFKEAAGYLLSVLSMHEVNTNNKKGDVGSLLNTYNDTVIETLKRVFIAMNRDDLLQEVKPGMDLKRFKGEFSF
modifications: left off: His6, N-terminal, state not stated
notes: Pex5p wildtype, PTS1 receptor of S. cerevisiae
As to B1, in data set [1], the “distribution between cytosolic fraction and organellar pellet (membrane binding)” value is recorded as “no detectable difference”. The growth on glucose entry in data set [2] (SC medium containing 2% glucose, compared to Pex5p^WT cells) is given as “equivalent to Pex5p^WT cells”. Moreover, the results for the growth in oleate entry in data set [2] (listed as Pex5p^2A) and in data set [2] (listed as Pex5p^2D) were “grew similar to wildtype cells in oleate” and “significant growth defect”, respectively. Further, the “composition of docking complex and abundance of individual proteins” value in data set [3] is “comparable irrespective of the Pex5p variant expressed”. For the same molecule, the folding result in data set [4] is reported as “folded with no major structural changes”.
